The results in this text go back to PMC11021448.

The target in test [1] is 6xHis-CtpA(ΔN37, S302A), purified alone (Pseudomonas aeruginosa). In words: negative staining EM; CtpA(S302A) 10 μg/ml on carbon grids prepared at room temperature, uranium formate stain, 2D classification.
Test [2] concerns the target 6xHis-CtpA(ΔN37, ΔC6) (Pseudomonas aeruginosa). In words: SEC; CtpA or CtpAΔC6 alone incubated at 30 °C for 15 min in 20 mM Tris pH 7.5, 5 mM MgCl2, 100 mM KCl; Superdex 200 increase.
The target is the same in test [3]. Description: cryo-EM 2D class averages of a cross-linked mixture; CtpAΔC6 mixed with LbcA at 6:4 molar ratio, 30 °C for 15 min in 20 mM HEPES pH 7.5, 5 mM MgCl2, 100 mM KCl, cross-linked with 1 mM BS(PEG)9 on ice overnight; 2D classification.
Test [4] has the same target. Description: SEC; separately purified CtpA (or CtpAΔC6) mixed with LbcA at molar ratios 6:1, 6:2, 6:3, 30 °C for 15 min in 20 mM Tris pH 7.5, 5 mM MgCl2, 100 mM KCl; Superdex 200 increase; peaks analysed by SDS-PAGE.
In test [5] the target is CtpA as used in the gel filtration experiments (Pseudomonas aeruginosa). Description: not stated; CtpA alone on ice at 4 °C (Appendix Fig. S12a).
For test [6] the target is unchanged. Description: SEC; CtpA or CtpAΔC6 alone incubated at 30 °C for 15 min in 20 mM Tris pH 7.5, 5 mM MgCl2, 100 mM KCl; Superdex 200 increase.
Test [7] has the same target. Described as above. This is another data set of the same source.
The target is the same in test [8]. Description: SEC; separately purified CtpA (or CtpAΔC6) mixed with LbcA at molar ratios 6:1, 6:2, 6:3, 30 °C for 15 min in 20 mM Tris pH 7.5, 5 mM MgCl2, 100 mM KCl; Superdex 200 increase; peaks analysed by SDS-PAGE.
Test [9] concerns the target CtpA(ΔN37, S302A), co-expressed with LbcA(ΔN31), 6xHis tag removed (Pseudomonas aeruginosa). Description: cryo-EM structure; co-expressed CtpA(ΔN37, S302A)-LbcA(ΔN31) complex purified by HiTrap Ni, HiTrap Q and Superose 6 Increase (20 mM Tris pH 7.5, 5 mM MgCl2, 100 mM KCl, 1 mM DTT), 0.8 mg/ml; single particle analysis; molar ratio judged by band intensity in stained SDS-PAGE gels.

For test [10], the target named is 6xHis-CtpA(ΔN37, ΔC6) (Pseudomonas aeruginosa). Description: ITC; 250 μM LbcA in the syringe titrated into 9 μM CtpA hexamer (32 μM for CtpAΔC6 dimer) in the cell; 25 °C; 20 mM Tris pH 7.5, 5 mM MgCl2, 100 mM KCl; one-site fit. Background: In ITC the heat of successive injections is recorded.
For test [11], the target named is 6xHis-CtpA(ΔN37, S302A), purified alone (Pseudomonas aeruginosa). The description is as above.
In test [12] the target is 6xHis-CtpA(ΔN37), wild type (Pseudomonas aeruginosa). The description is as above.

Usually stoichiometry N stands for a count of units in the complex or per binding partner. With “6xHis-CtpA(ΔN37, S302A), purified alone (enzyme)”, the stoichiometry N in [1] came out at 2.
As to 6xHis-CtpA(ΔN37, ΔC6) (enzyme), the stoichiometry N in [2], in test [3] and in test [4] was 2 throughout.
Turning to “CtpA as used in the gel filtration experiments (printed only as CtpA) (enzyme)”, the stoichiometry N in [5] worked out at 6; in test [6], 2; in test [7] it was 6; in test [8], 6.
Regarding “CtpA(ΔN37, S302A), co-expressed with LbcA(ΔN31), 6xHis tag removed (enzyme)”, in [9], the stoichiometry N was 6.
As a reminder, the Kd is the equilibrium constant for the complex coming apart. Read a low Kd as tighter binding. With “LbcA(ΔN31) with C-terminal 6xHis tag, purified alone (natural protein)”, the values for the Kd in test [10], in test [11] and in [12] were 0.85 µM, 0.76 µM and 0.92 µM, respectively. In addition, the stoichiometry N (LbcA per CtpA dimer) in [11] stood at 1. In [8], the stoichiometry N (CtpA:LbcA (molar ratio)) turned out to be 2.
“LbcA(ΔN31), co-expressed with CtpA(ΔN37, S302A) (natural protein)”: the stoichiometry N (CtpA:LbcA (molar ratio)) in test [9] came out at 2.
